According to US20250145926A1, “DEVICES, METHODS, AND SYSTEMS FOR ASSESSING CELL MIGRATION AND RELATED PROCESSES” (University of Washington, priority 2023, published 2025):

Test system: differentiated HL-60 neutrophils
Assay: vE/D ratio and ectodomain charge estimation, under-agarose cells immobilized with Latrunculin A in an electric field
Type: cell-based, human
Settings: averaged across all electric field conditions; ± SEM
Experimental: Experimental Setup. Cells were resuspended to a concentration of 2×10^6 cells/ml in L-15 Medium with 10% hiFBS. With an ibiTreat μ-Slide-I (Ibidi, #80106) placed on a 37° C. heat block, 100 μL of cells were added to the channel and incubated for 5 minutes to allow them to sediment and loosely adhere to the bottom coverslip. Warm, liquid 2.5% UltraPure low melting point agarose (Invitrogen of Waltham, MA, #16520-050) in L-15 with 10% hiFBS was added to one channel reservoir and then centrifuged at 28-37° C. for 5 min at 700 g. This was performed in a custom 3D-printed swinging bucket rotor plate adaptor (design available upon request). Immediately after centrifugation, the slide was incubated on a 20° C. cooling plate (STIR-KOOL, Ladd Research of Essex Junction, VT; #SK-12D-AW) for 5 minutes to gel. […] L-15 media with 10% hiFBS was added to both reservoirs. […]
Quantification of vE/D Ratio and Estimation of Charge. […] Under the imaging conditions (800 nm axial resolution), the measured fluorescence intensities will reflect fluorescence predominantly at this surface, and the biological system is treated as a flat two-dimensional surface. […]

B1: Galvanin: single-pass transmembrane protein (161 amino acids, UniProt ID: Q6P9G4), electric field sensor (protein)
chain: NYEELENSGDTTVESERPNKVTIPSTFAAVTIKETLNANINSTNFAPDENQLEFILMVLIPLILLVLLLLSVVFLATYYKRKRTKQEPSSQGSQSALQTYELGSENVKVPIFEEDTPSVMEIEMEELDKWMNSMNRNADFECLPTLKEEKESNHNPSDSES
net charge estimated from vE/D: −18 e
